Data on 21 variants can be found in the supplement of paper PMC7125110.

± gives the standard error. Variants at the floor of the assay were thinned out.

B1: glmS ribozyme (parent)
chain: AUAAAAGCGCCAGAACUACAGAAAUGUAGUUGACGAGGAGGAGGUUUAUCGAAUUUUCGGCGGAUGCCUCCAAA

Conditions in all cases: with glucosamine-6-phosphate
Variants of B1 are the subject of data set [1]. The experiment in a line: self-cleavage kobs at 40 uM GlcN6P; higher = faster cleavage; RNA array. The gist of the method:
(§1)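 Tracking of barcoded ribozyme variants used a hybridised Cy3 probe at 37 °C, after in situ transcription by E. coli RNA polymerase on sequenced MiSeq chips. The flowed solution held 40 μM to 10 mM glucosamine-6-phosphate in HEPES/KCl/Mg(OAc)2 buffer, and imaging ran over ~14 h. kobs was taken from exponential decay fits of normalised per-tile medians, and kcat and KM from weighted Michaelis–Menten fits.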

Data set [2] covers variants of B1. The data set is described as follows: self-cleavage kobs at 160 uM GlcN6P; higher = faster cleavage; RNA array. Summed up: as §1
Data set [3] covers variants of B1. The experiment in a line: self-cleavage kobs at 640 uM GlcN6P; higher = faster cleavage; RNA array. The gist of the method: as §1
In data set [4] the parent is B1. The data set is described as follows: self-cleavage kobs at 2500 uM GlcN6P; higher = faster cleavage; RNA array. The gist of the method:
as §1

Data set [5] covers variants of B1. The data set is described as follows: self-cleavage kobs at 10000 uM GlcN6P; higher = faster cleavage; RNA array. The gist of the method:
as §1

On to A1U U2G A3G A5U A6C G7C C8A G9U C10A C11A, for which the “self-cleavage kobs at 40 uM GlcN6P” value with glucosamine-6-phosphate [1] was less than 1e-05 s⁻¹. Besides, the “self-cleavage kobs at 160 uM GlcN6P” value with glucosamine-6-phosphate [2] was less than 1e-05 s⁻¹. The “self-cleavage kobs at 640 uM GlcN6P” value with glucosamine-6-phosphate [3] was less than 1e-05 s⁻¹. For the same variant, the “self-cleavage kobs at 2500 uM GlcN6P” value with glucosamine-6-phosphate [4] is less than 1e-05 s⁻¹. Besides, the “self-cleavage kobs at 10000 uM GlcN6P” value with glucosamine-6-phosphate [5] is less than 1e-05 s⁻¹.
As for C11G U54C C70U, the “self-cleavage kobs at 40 uM GlcN6P” value with glucosamine-6-phosphate [1] was less than 1e-05 s⁻¹. Moreover, the “self-cleavage kobs at 10000 uM GlcN6P” value in the data set with glucosamine-6-phosphate [5] is less than 1e-05 s⁻¹.
Regarding A14U G40A U56G, the “self-cleavage kobs at 40 uM GlcN6P” value with glucosamine-6-phosphate [1] is 0.000117 ± 2.9e-05 s⁻¹. Besides, in the data set with glucosamine-6-phosphate [5], the “self-cleavage kobs at 10000 uM GlcN6P” value came to 0.00163 ± 0.00045 s⁻¹.
For the variant G7A C8G, the “self-cleavage kobs at 40 uM GlcN6P” value with glucosamine-6-phosphate [1] is less than 1e-05 s⁻¹. The “self-cleavage kobs at 160 uM GlcN6P” value with glucosamine-6-phosphate [2] is less than 1e-05 s⁻¹. The “self-cleavage kobs at 640 uM GlcN6P” value with glucosamine-6-phosphate [3] was less than 1e-05 s⁻¹. Also, the “self-cleavage kobs at 2500 uM GlcN6P” value in the data set with glucosamine-6-phosphate [4] was less than 1e-05 s⁻¹. Also, the “self-cleavage kobs at 10000 uM GlcN6P” value with glucosamine-6-phosphate [5] was less than 1e-05 s⁻¹.
As for C8U G44C A53U G63U C68G, the “self-cleavage kobs at 40 uM GlcN6P” value with glucosamine-6-phosphate [1] is less than 1e-05 s⁻¹. Also, the “self-cleavage kobs at 10000 uM GlcN6P” value with glucosamine-6-phosphate [5] was less than 1e-05 s⁻¹.
As for A12U G41U C61U, the “self-cleavage kobs at 40 uM GlcN6P” value with glucosamine-6-phosphate [1] is less than 1e-05 s⁻¹. Moreover, the “self-cleavage kobs at 160 uM GlcN6P” value in the data set with glucosamine-6-phosphate [2] was less than 1e-05 s⁻¹. The “self-cleavage kobs at 640 uM GlcN6P” value in the data set with glucosamine-6-phosphate [3] is less than 1e-05 s⁻¹. Besides, the “self-cleavage kobs at 2500 uM GlcN6P” value in the data set with glucosamine-6-phosphate [4] was less than 1e-05 s⁻¹. The “self-cleavage kobs at 10000 uM GlcN6P” value in the data set with glucosamine-6-phosphate [5] is less than 1e-05 s⁻¹.
Take G37A A42C U47G: the “self-cleavage kobs at 40 uM GlcN6P” value in the data set with glucosamine-6-phosphate [1] is less than 1e-05 s⁻¹. For the same variant, the “self-cleavage kobs at 160 uM GlcN6P” value with glucosamine-6-phosphate [2] is less than 1e-05 s⁻¹. Moreover, in the data set with glucosamine-6-phosphate [3], the “self-cleavage kobs at 640 uM GlcN6P” value was less than 1e-05 s⁻¹.
Turning to G9C C71G, the “self-cleavage kobs at 40 uM GlcN6P” value with glucosamine-6-phosphate [1] is less than 1e-05 s⁻¹. The “self-cleavage kobs at 160 uM GlcN6P” value with glucosamine-6-phosphate [2] was less than 1e-05 s⁻¹. The “self-cleavage kobs at 640 uM GlcN6P” value with glucosamine-6-phosphate [3] is less than 1e-05 s⁻¹. Besides, in the data set with glucosamine-6-phosphate [4], the “self-cleavage kobs at 2500 uM GlcN6P” value is less than 1e-05 s⁻¹. For the same variant, in the data set with glucosamine-6-phosphate [5], the “self-cleavage kobs at 10000 uM GlcN6P” value is less than 1e-05 s⁻¹.
Take A14U G37U C70A: the “self-cleavage kobs at 40 uM GlcN6P” value with glucosamine-6-phosphate [1] is less than 1e-05 s⁻¹.
With C10U G37A, the “self-cleavage kobs at 40 uM GlcN6P” value with glucosamine-6-phosphate [1] is less than 1e-05 s⁻¹. For the same variant, the “self-cleavage kobs at 160 uM GlcN6P” value with glucosamine-6-phosphate [2] is less than 1e-05 s⁻¹. Besides, the “self-cleavage kobs at 10000 uM GlcN6P” value in the data set with glucosamine-6-phosphate [5] is less than 1e-05 s⁻¹.
For A42C G43U A48G G62C C67A C70G, in the data set with glucosamine-6-phosphate [1], the “self-cleavage kobs at 40 uM GlcN6P” value was less than 1e-05 s⁻¹. The “self-cleavage kobs at 640 uM GlcN6P” value in the data set with glucosamine-6-phosphate [3] is less than 1e-05 s⁻¹. Moreover, in the data set with glucosamine-6-phosphate [4], the “self-cleavage kobs at 2500 uM GlcN6P” value is less than 1e-05 s⁻¹.
Regarding C10A A14C U45C C68U, in the data set with glucosamine-6-phosphate [1], the “self-cleavage kobs at 40 uM GlcN6P” value is less than 1e-05 s⁻¹. Further, in the data set with glucosamine-6-phosphate [3], the “self-cleavage kobs at 640 uM GlcN6P” value was less than 1e-05 s⁻¹. The “self-cleavage kobs at 2500 uM GlcN6P” value with glucosamine-6-phosphate [4] was less than 1e-05 s⁻¹. For the same variant, in the data set with glucosamine-6-phosphate [5], the “self-cleavage kobs at 10000 uM GlcN6P” value is less than 1e-05 s⁻¹.
With A12G C61A C70U, the “self-cleavage kobs at 40 uM GlcN6P” value with glucosamine-6-phosphate [1] is less than 1e-05 s⁻¹. For the same variant, the “self-cleavage kobs at 10000 uM GlcN6P” value in the data set with glucosamine-6-phosphate [5] is less than 1e-05 s⁻¹.
With A36U U69G, the “self-cleavage kobs at 40 uM GlcN6P” value in the data set with glucosamine-6-phosphate [1] is 3.66e-05 ± 8.9e-06 s⁻¹. Further, the “self-cleavage kobs at 160 uM GlcN6P” value with glucosamine-6-phosphate [2] is 0.000214 ± 3.9e-05 s⁻¹. In addition, the “self-cleavage kobs at 640 uM GlcN6P” value in the data set with glucosamine-6-phosphate [3] is 0.000283 ± 5.8e-05 s⁻¹. Besides, the “self-cleavage kobs at 2500 uM GlcN6P” value with glucosamine-6-phosphate [4] is 9.73e-05 ± 2.3e-05 s⁻¹. Moreover, the “self-cleavage kobs at 10000 uM GlcN6P” value with glucosamine-6-phosphate [5] came to 0.000107 ± 4.1e-05 s⁻¹.
As to A15U G60U, in the data set with glucosamine-6-phosphate [1], the “self-cleavage kobs at 40 uM GlcN6P” value is less than 1e-05 s⁻¹. In addition, in the data set with glucosamine-6-phosphate [2], the “self-cleavage kobs at 160 uM GlcN6P” value was less than 1e-05 s⁻¹. Also, the “self-cleavage kobs at 640 uM GlcN6P” value with glucosamine-6-phosphate [3] was less than 1e-05 s⁻¹. Moreover, the “self-cleavage kobs at 2500 uM GlcN6P” value with glucosamine-6-phosphate [4] was less than 1e-05 s⁻¹. Moreover, the “self-cleavage kobs at 10000 uM GlcN6P” value with glucosamine-6-phosphate [5] was less than 1e-05 s⁻¹.
Regarding A14U G60U, the “self-cleavage kobs at 40 uM GlcN6P” value in the data set with glucosamine-6-phosphate [1] was less than 1e-05 s⁻¹. The “self-cleavage kobs at 160 uM GlcN6P” value with glucosamine-6-phosphate [2] is less than 1e-05 s⁻¹. Besides, in the data set with glucosamine-6-phosphate [3], the “self-cleavage kobs at 640 uM GlcN6P” value was less than 1e-05 s⁻¹. The “self-cleavage kobs at 2500 uM GlcN6P” value in the data set with glucosamine-6-phosphate [4] is less than 1e-05 s⁻¹. The “self-cleavage kobs at 10000 uM GlcN6P” value with glucosamine-6-phosphate [5] was less than 1e-05 s⁻¹.
For the variant C11G G29A U49G U69G, in the data set with glucosamine-6-phosphate [1], the “self-cleavage kobs at 40 uM GlcN6P” value was determined as 4.27e-05 ± 1.7e-05 s⁻¹.
Regarding C16U G32U G40A C71G, the “self-cleavage kobs at 40 uM GlcN6P” value with glucosamine-6-phosphate [1] was less than 1e-05 s⁻¹. For the same variant, in the data set with glucosamine-6-phosphate [5], the “self-cleavage kobs at 10000 uM GlcN6P” value came out at 0.0002 ± 2.8e-05 s⁻¹.
For A33G G40C C70U, in that order: less than 1e-05 s⁻¹ and less than 1e-05 s⁻¹.
Regarding G13A G62U C70U, in the data set with glucosamine-6-phosphate [1], the “self-cleavage kobs at 40 uM GlcN6P” value is less than 1e-05 s⁻¹. In addition, in the data set with glucosamine-6-phosphate [5], the “self-cleavage kobs at 10000 uM GlcN6P” value is less than 1e-05 s⁻¹.
Take A6C G51U U56A: in the data set with glucosamine-6-phosphate [1], the “self-cleavage kobs at 40 uM GlcN6P” value was less than 1e-05 s⁻¹.
